Key:
[1] = target: T1, Rv2034 (ArsR family regulator) (Mycobacterium tuberculosis) (UniProt O53478); assay: DNase I footprinting
T1 sequence: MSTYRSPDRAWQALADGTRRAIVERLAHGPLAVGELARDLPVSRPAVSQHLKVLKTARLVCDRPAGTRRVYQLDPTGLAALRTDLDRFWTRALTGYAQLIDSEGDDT

[2] = target: T1, Rv2034 (ArsR family regulator) (Mycobacterium tuberculosis); assay: EMSA
[3] = target: T2, Rv2034ΔN28 del1-28 (Mycobacterium tuberculosis) (UniProt O53478); assay: EMSA
T2 sequence: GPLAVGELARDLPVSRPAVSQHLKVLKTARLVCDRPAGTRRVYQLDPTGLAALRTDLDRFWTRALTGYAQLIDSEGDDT

[4] = target: T1, Rv2034 (ArsR family regulator) (Mycobacterium tuberculosis); assay: competition
[5] = target: T3, Rv2034 (ArsR family regulator) (Mycobacterium tuberculosis, UniProt O53478 1-107); assay: EMSA; 0.1-1.2 uM protein; conditions: protein: recombinant; tags: N-terminal His6 (pET28a); chain copies: 2; label: 5' label (32P or FITC); blunt
T3 sequence: T1 sequence

GATAGAATTCTACCAGTCGACTTTCCGGCGGGCCAACGTCGCCAACCGATACTCGGCTCCAACGCCATGGGTGACGGGATGCCCGGATCACGTGTCACACCACCCGCGCACCCTTGCGGAAGAATATCCGTAAGTCTAAACTTACGGTTCGTGTCCACTTACAGATCACCGGATCGCGCTTGGCAGGCGCTGGCGGACGGCACTCGCCGGGCCATCGTGGAGCGGCTGGCGCATCTAGATGTC (double strand) [Rv2034p footprint fragment]
binding [1]: binds

AATTTCTAGAGCCTGCGGCAAGCACGTCGGTTCCATAGCGATCCAGCACGCCGCAATACTAGGGAGCCTCTCTGCCGGTCATCGCCGCGACGCGCCGCATGGGTTCTCGGAAAATGCTTGTACCAGTCGACTTTCCGGCGGGCCAACGTCGCCAACCGATACTCGGCTCCAACGCCATGGGTGACGGGATGCCCGGATCACGTGTCACACCACCCGCGCACCCTTGCGGAAGAATATCCGTAAGTCTAAACTTACGGTTCGAATTCCCGG (double strand) [Rv2034p promoter]
binding [2]: binds | binding [3]: no binding | binding [4]: binds

ACTGTCTAGAGTTGGCGCATGTACACCTGAGCCGTCGGCTCGCCCACTGGACCCGGCTCTACCCCGAGGTGCGGGTGGATCGGGCCATCGCCGGCGGCAGTGCGTGCCGTCATCTGGCCGCCAACGCAAAGCCGGGTCAGCTGTTCGTCGCGGACTCACACTCCGCGCACGAATTGTGCGGTGCATACCAGCCCGGATGCGCCGTACTTACGGTACGCAGTGCCAACTTGTAGGGAGCGGATCTTGGGAGTGGTGCCCTGGAATTCATCT (double strand) [Rv3133cp (dosR promoter)]
binding [2]: binds

B1: Rv2034BSwt (dsDNA)
DNA 1: GGAAGAATATCCGTAAGTCTAAACTTACGGTTCGTGTCCA
DNA 2: TGGACACGAACCGTAAGTTTAGACTTACGGATATTCTTCC
binding result [5]: binds
